Earlier results on one molecule are cited in PMC12071944, “Interaction Between Glucagon-like Peptide 1 and Its Analogs with Amyloid-β Peptide Affects Its Fibrillation and Cytotoxicity” (International Journal of Molecular Sciences, 2025).

For the data set, the system named is AD patients. To be noted: human, in vivo. The text has this:
Worldwide, approximately 416 million individuals are affected by AD dementia, prodromal AD, or preclinical AD, accounting for 22% of the population aged 50 years and older.

B1: lecanemab (antibody, chains of the INN, looked up, V domains shown)
VH: EVQLVESGGGLVQPGGSLRLSCSASGFTFSSFGMHWVRQAPGKGLEWVAYISSGSSTIYYGDTVKGRFTISRDNAKNSLFLQMSSLRAEDTAVYYCAREGGYYYGRSYYTMDYWGQGTTVTVSS
VL: DVVMTQSPLSLPVTPGAPASISCRSSQSIVHSNGNTYLEWYLQKPGQSPKLLIYKVSNRFSGVPDRFSGSGSGTDFTLRISRVEAEDVGIYYCFQGSHVPPTFGPGTKLEIK
Take B1: the side effects result was “brain edema and microhemorrhages”.
